Assay results published in patent US20100272719A1.

Target: VEGF (isoform not given)
Assay: cell-based or functional assay

| HUVEC tube formation on Matrigel, percent inhibition at 50 µg/ml [%] | HUVEC chemotactic migration (Transwell), percent blocked at 10 µg FP3′ [%] | HUVEC chemotactic migration (Transwell), percent blocked at 20 µg FP3′ [%] | VEGF-induced cell proliferation, percent blocked at 10.7 nM FP3′ [%] | rat aortic ring microvessel sprouting, percent inhibition at 100 µg/ml [%] | rat aortic ring microvessel sprouting, percent inhibition at 200 µg/ml [%] | rat aortic ring vessel outgrowth, more inhibition than Avastin [%] | Substance |
| --- | --- | --- | --- | --- | --- | --- | --- |
| 41.3 |  |  |  |  |  |  | Avastin (bevacizumab) (antibody) |
| 72.3 | 78.3 | 94.7 | 82.6 | 70.4 | 90 | 15 to 33 | FP3′ (FLTd2-KDRd3-KDRd4-Fc chimeric fusion protein) (Fc fusion) |
